Article PMC10952841, “Biocatalytic synthesis of 2′‐deoxynucleotide 5′‐triphosphates from bacterial genomic DNA: Proof of principle” (Biotechnology and Bioengineering, 2023)

System: T1, Nc1ncnc2c1ncn2[C@H]1C[C@H](O)[C@@H](COP(=O)(O)O)O1
T1 construct: C-terminal 6x His tag (pET24a), kept; E. coli BL21(DE3) host; Ni-NTA
Assay: purified protein
Assay type: biochemical, Escherichia coli
Conditions: 2 mM ATP, 10 mM Mg acetate, 50 mM K acetate, 20 mM Tris-acetate, 37°C, three protein batches (N = 3)

Q: For “adenylate kinase (adk) (Escherichia coli K-12)”, which Km is on record?
A: Its Km is 359 ± 84 µM.

Q: And the Vmax?
A: The Vmax was 47.9 µmol/min/mg.
